Publication PMC10698284

Experiments:
[1] = Gal3-488 internalisation, 10 min 37 °C; conditions: glycan lost; control: WTseq
[2] = anti-SLC3A2 antibody uptake, 10 min 37 °C; conditions: glycan lost; control: WTseq
[3] = response of SLC3A2 endocytosis to 5 min inhibitor; conditions: glycan lost; control: WTseq (inhibitor reduced internalization by ∼50%)
[4] = dox-induced expression and FLAG pull-down efficiency; conditions: control: WTseq
[5] = surface anti-SLC3A2 antibody binding at 4 °C, imaging; conditions: glycan lost; control: WTseq
[6] = endosomal distribution of internalised SLC3A2, confocal; conditions: glycan lost; control: WTseq (small peripheral endosomes)

Protein	other: Gal3 uptake by expressing cells [1]	localisation_or_trafficking [2]	localisation_or_trafficking [3]	expression_or_secretion ([4]; glycan lost)	localisation_or_trafficking [5]	localisation_or_trafficking [6]	expression_or_secretion ([4]; glycan gained)
SLC3A2 (4F2hc, CD98): N381D (protein) parent chain: MELQPPEASIAVVSIPRQLPGSHSEAGVQGLSAGDDSELGSHCVAQTGLELLASGDPLPSASQNAEMIETGSDCVTQAGLQLLASSDPPALASKNAEVTGTMSQDTEVDMKEVELNELEPEKQPMNAASGAAMSLAGAEKNGLVKIKVAEDEAEAAAAAKFTGLSKEELLKVAGSPGWVRTRWALLLLFWLGWLGMLAGAVVIIVRAPRCRELPAQKWWHTGALYRIGDLQAFQGHGAGNLAGLKGRLDYLSSLKVKGLVLGPIHKNQKDDVAQTDLLQIDPNFGSKEDFDSLLQSAKKKSIRVILDLTPNYRGENSWFSTQVDTVATKVKDALEFWLQAGVDGFQVRDIENLKDASSFLAEWQNITKGFSEDRLLIAGTNSSDLQQILSLLESNKDLLLTSSYLSDSGSTGEHTKSLVTQYLNATGNRWCSWSLSQARLLTSFLPAQLLRLYQLMLFTLPGTPVFSYGDEIGLDAAALPGQPMEAPVMLWDESSFPDIPGAVSANMTVKGQSEDPGSLLSLFRRLSDQRSKERSLLHGDFHAFSAGPGLFSYIRHWDQNERFLVVLNFGDVGLSAGLQASDLPASASLPAKADLLLSTQPGREEGSPLELERLKLEPHEGLLLRFPYAA	decreases	increases	abolishes	no change	no change	changes	–
SLC3A2 (4F2hc, CD98): D355N + D492N (protein) parent chain: MELQPPEASIAVVSIPRQLPGSHSEAGVQGLSAGDDSELGSHCVAQTGLELLASGDPLPSASQNAEMIETGSDCVTQAGLQLLASSDPPALASKNAEVTGTMSQDTEVDMKEVELNELEPEKQPMNAASGAAMSLAGAEKNGLVKIKVAEDEAEAAAAAKFTGLSKEELLKVAGSPGWVRTRWALLLLFWLGWLGMLAGAVVIIVRAPRCRELPAQKWWHTGALYRIGDLQAFQGHGAGNLAGLKGRLDYLSSLKVKGLVLGPIHKNQKDDVAQTDLLQIDPNFGSKEDFDSLLQSAKKKSIRVILDLTPNYRGENSWFSTQVDTVATKVKDALEFWLQAGVDGFQVRDIENLKDASSFLAEWQNITKGFSEDRLLIAGTNSSDLQQILSLLESNKDLLLTSSYLSDSGSTGEHTKSLVTQYLNATGNRWCSWSLSQARLLTSFLPAQLLRLYQLMLFTLPGTPVFSYGDEIGLDAAALPGQPMEAPVMLWDESSFPDIPGAVSANMTVKGQSEDPGSLLSLFRRLSDQRSKERSLLHGDFHAFSAGPGLFSYIRHWDQNERFLVVLNFGDVGLSAGLQASDLPASASLPAKADLLLSTQPGREEGSPLELERLKLEPHEGLLLRFPYAA	–	–	–	–	–	–	no change
SLC3A2 (4F2hc, CD98): A273N (protein) parent chain: MELQPPEASIAVVSIPRQLPGSHSEAGVQGLSAGDDSELGSHCVAQTGLELLASGDPLPSASQNAEMIETGSDCVTQAGLQLLASSDPPALASKNAEVTGTMSQDTEVDMKEVELNELEPEKQPMNAASGAAMSLAGAEKNGLVKIKVAEDEAEAAAAAKFTGLSKEELLKVAGSPGWVRTRWALLLLFWLGWLGMLAGAVVIIVRAPRCRELPAQKWWHTGALYRIGDLQAFQGHGAGNLAGLKGRLDYLSSLKVKGLVLGPIHKNQKDDVAQTDLLQIDPNFGSKEDFDSLLQSAKKKSIRVILDLTPNYRGENSWFSTQVDTVATKVKDALEFWLQAGVDGFQVRDIENLKDASSFLAEWQNITKGFSEDRLLIAGTNSSDLQQILSLLESNKDLLLTSSYLSDSGSTGEHTKSLVTQYLNATGNRWCSWSLSQARLLTSFLPAQLLRLYQLMLFTLPGTPVFSYGDEIGLDAAALPGQPMEAPVMLWDESSFPDIPGAVSANMTVKGQSEDPGSLLSLFRRLSDQRSKERSLLHGDFHAFSAGPGLFSYIRHWDQNERFLVVLNFGDVGLSAGLQASDLPASASLPAKADLLLSTQPGREEGSPLELERLKLEPHEGLLLRFPYAA	–	–	–	–	–	–	no change
SLC3A2 (4F2hc, CD98): A273N + D355N (protein) parent chain: MELQPPEASIAVVSIPRQLPGSHSEAGVQGLSAGDDSELGSHCVAQTGLELLASGDPLPSASQNAEMIETGSDCVTQAGLQLLASSDPPALASKNAEVTGTMSQDTEVDMKEVELNELEPEKQPMNAASGAAMSLAGAEKNGLVKIKVAEDEAEAAAAAKFTGLSKEELLKVAGSPGWVRTRWALLLLFWLGWLGMLAGAVVIIVRAPRCRELPAQKWWHTGALYRIGDLQAFQGHGAGNLAGLKGRLDYLSSLKVKGLVLGPIHKNQKDDVAQTDLLQIDPNFGSKEDFDSLLQSAKKKSIRVILDLTPNYRGENSWFSTQVDTVATKVKDALEFWLQAGVDGFQVRDIENLKDASSFLAEWQNITKGFSEDRLLIAGTNSSDLQQILSLLESNKDLLLTSSYLSDSGSTGEHTKSLVTQYLNATGNRWCSWSLSQARLLTSFLPAQLLRLYQLMLFTLPGTPVFSYGDEIGLDAAALPGQPMEAPVMLWDESSFPDIPGAVSANMTVKGQSEDPGSLLSLFRRLSDQRSKERSLLHGDFHAFSAGPGLFSYIRHWDQNERFLVVLNFGDVGLSAGLQASDLPASASLPAKADLLLSTQPGREEGSPLELERLKLEPHEGLLLRFPYAA	–	–	–	–	–	–	no change
SLC3A2 (4F2hc, CD98): N365D (protein) parent chain: MELQPPEASIAVVSIPRQLPGSHSEAGVQGLSAGDDSELGSHCVAQTGLELLASGDPLPSASQNAEMIETGSDCVTQAGLQLLASSDPPALASKNAEVTGTMSQDTEVDMKEVELNELEPEKQPMNAASGAAMSLAGAEKNGLVKIKVAEDEAEAAAAAKFTGLSKEELLKVAGSPGWVRTRWALLLLFWLGWLGMLAGAVVIIVRAPRCRELPAQKWWHTGALYRIGDLQAFQGHGAGNLAGLKGRLDYLSSLKVKGLVLGPIHKNQKDDVAQTDLLQIDPNFGSKEDFDSLLQSAKKKSIRVILDLTPNYRGENSWFSTQVDTVATKVKDALEFWLQAGVDGFQVRDIENLKDASSFLAEWQNITKGFSEDRLLIAGTNSSDLQQILSLLESNKDLLLTSSYLSDSGSTGEHTKSLVTQYLNATGNRWCSWSLSQARLLTSFLPAQLLRLYQLMLFTLPGTPVFSYGDEIGLDAAALPGQPMEAPVMLWDESSFPDIPGAVSANMTVKGQSEDPGSLLSLFRRLSDQRSKERSLLHGDFHAFSAGPGLFSYIRHWDQNERFLVVLNFGDVGLSAGLQASDLPASASLPAKADLLLSTQPGREEGSPLELERLKLEPHEGLLLRFPYAA	increases	increases	changes	no change	no change	changes	–
